Tests used:
[1] = biological target: human mesothelin (MSLN) (human) (UniProt Q13421); assay: BLI (Octet), bsAb in 1+1 Fab-scFv-Fc format
[2] = biological target: cyno MSLN (Macaca fascicularis); assay: BLI (Octet), bsAb in 1+1 Fab-scFv-Fc format

Kd [1] [nM]	Response [1]	koff [1] [s⁻¹]	kon [1] [M⁻¹ s⁻¹]	Kd [2] [nM]	Response [2]	koff [2] [s⁻¹]	kon [2] [M⁻¹ s⁻¹]	Binder
0.0805	0.86	4.69e-05	583000	0.0938	0.737	5.74e-05	612000	XENP31701 (bispecific antibody, part only; not given: anti-CD3 scFv-Fc arm, constant regions, V domains shown, not shown: another chain or arm of the molecule; a dimerising Fc or GST; small tags and cut ends) VH: QVQLVQSGAEVKKPGASVKVSCKASGYTFTSYWMHWVRQAPGQGLEWMGMIHPNSDNTIYYEKFQGRVTMTVDKSISTAYMELSRLRSDDTAVYYCAIIITPVVPKFDYWGQGTLVTVSS VL: DIVMTQSPDSLAVSLGERATINCKASHDVGTSVAWYQQKPGQSPKLLIYWASTRHTGVPDRFTGSGSGTDFTLTISSLQAEDVAVYFCQQYSSYPLTFGAGTKLEIK
1.6	1.19	0.000773	483000	1.66	1.1	0.000822	495000	XENP32551 (bispecific antibody, part only; not given: anti-CD3 scFv-Fc arm, constant regions, V domains shown, not shown: another chain or arm of the molecule; a dimerising Fc or GST; small tags and cut ends) VH: QVQLVQSGAEVKKPGASVKVSCKASGYTFTSYYMHWVRQAPGQGLEWMGMIHPNSDNTIYYEKFQGRVTMTVDKSISTAYMELSRLRSDDTAVYYCAIIITPVVPKFDYWGQGTLVTVSS VL: DIVMTQSPDSLAVSLGERATINCKASHDVGTSVAWYQQKPGQSPKLLIYWASTRHTGVPDRFTGSGSGTDFTLTISSLQAEDVAVYFCQQYSSYPLTFGAGTKLEIK
0.601	1.02	0.000314	522000	0.254	0.891	0.000146	576000	XENP32550 (bispecific antibody, part only; not given: anti-CD3 scFv-Fc arm, constant regions, V domains shown, not shown: another chain or arm of the molecule; a dimerising Fc or GST; small tags and cut ends) VH: QVQLVQSGAEVKKPGASVKVSCKASGYTFTGYWMHWVRQAPGQGLEWMGMIHPNSDNTIYYEKFQGRVTMTVDKSISTAYMELSRLRSDDTAVYYCAIIITPVVPKFDYWGQGTLVTVSS VL: DIVMTQSPDSLAVSLGERATINCKASHDVGTSVAWYQQKPGQSPKLLIYWASTRHTGVPDRFTGSGSGTDFTLTISSLQAEDVAVYFCQQYSSYPLTFGAGTKLEIK
0.483	1.13	0.000268	555000	0.414	1.03	0.00023	555000	XENP32554 (bispecific antibody, part only; not given: anti-CD3 scFv-Fc arm, constant regions, V domains shown, not shown: another chain or arm of the molecule; a dimerising Fc or GST) VH: QVQLVQSGAEVKKPGASVKVSCKASGYTFTSYWMHWVRQAPGQGLEWMGMIHPQSDNTIYYEKFQGRVTMTVDKSISTAYMELSRLRSDDTAVYYCAIIITPVVPKFDYWGQGTLVTVSS VL: DIVMTQSPDSLAVSLGERATINCKASHDVGTSVAWYQQKPGQSPKLLIYWASTRHTGVPDRFTGSGSGTDFTLTISSLQAEDVAVYFCQQYSSYPLTFGAGTKLEIK
0.103	0.981	7.35e-05	717000	0.155	0.95	0.000105	676000	XENP32570 (bispecific antibody, part only; not given: anti-CD3 scFv-Fc arm, constant regions, V domains shown, not shown: another chain or arm of the molecule; a dimerising Fc or GST; small tags and cut ends) VH: QVQLVQSGAEVKKPGASVKVSCKASGYTFTSYWMHWVRQAPGQGLEWMGMIHPNSGNTIYYEKFQGRVTMTVDKSISTAYMELSRLRSDDTAVYYCAIIITPVVPKFDYWGQGTLVTVSS VL: DIVMTQSPDSLAVSLGERATINCKASHSVGTSVAWYQQKPGQSPKLLIYWASTRHTGVPDRFTGSGSGTDFTLTISSLQAEDVAVYFCQQYSSYPLTFGAGTKLEIK
0.687	1.16	0.00037	539000	0.585	1.06	0.000337	575000	XENP32553 (bispecific antibody, part only; not given: anti-CD3 scFv-Fc arm, constant regions, V domains shown, not shown: another chain or arm of the molecule; a dimerising Fc or GST; small tags and cut ends) VH: QVQLVQSGAEVKKPGASVKVSCKASGYTFTSYWMHWVRQAPGQGLEWMGMINPNSDNTIYYEKFQGRVTMTVDKSISTAYMELSRLRSDDTAVYYCAIIITPVVPKFDYWGQGTLVTVSS VL: DIVMTQSPDSLAVSLGERATINCKASHDVGTSVAWYQQKPGQSPKLLIYWASTRHTGVPDRFTGSGSGTDFTLTISSLQAEDVAVYFCQQYSSYPLTFGAGTKLEIK
–	0.107	–	–	–	0.0728	–	–	XENP32568 (bispecific antibody, part only; not given: anti-CD3 scFv-Fc arm, constant regions, V domains shown, not shown: another chain or arm of the molecule; a dimerising Fc or GST; small tags and cut ends) VH: QVQLVQSGAEVKKPGASVKVSCKASGYTFTSYWMHWVRQAPGQGLEWMGMIHPNSDNTIYYEKFQGRVTMTVDKSISTAYMELSRLRSDDTAVYYCAIIITPVVPKFDYWGQGTLVTVSS VL: DIVMTQSPDSLAVSLGERATINCKASHDVGTSVAWYQQKPGQSPKLLIYWASTRHTGVPDRFTGSGSGTDFTLTISSLQAEDVAVYFCQQYSSTPLTFGAGTKLEIK
0.684	1.23	0.000375	549000	0.603	1.11	0.000342	566000	XENP32555 (bispecific antibody, part only; not given: anti-CD3 scFv-Fc arm, constant regions, V domains shown, not shown: another chain or arm of the molecule; a dimerising Fc or GST; small tags and cut ends) VH: QVQLVQSGAEVKKPGASVKVSCKASGYTFTSYWMHWVRQAPGQGLEWMGMIHPNSGNTIYYEKFQGRVTMTVDKSISTAYMELSRLRSDDTAVYYCAIIITPVVPKFDYWGQGTLVTVSS VL: DIVMTQSPDSLAVSLGERATINCKASHDVGTSVAWYQQKPGQSPKLLIYWASTRHTGVPDRFTGSGSGTDFTLTISSLQAEDVAVYFCQQYSSYPLTFGAGTKLEIK
0.0861	0.952	5.68e-05	660000	0.0297	0.849	2.01e-05	676000	XENP32564 (bispecific antibody, part only; not given: anti-CD3 scFv-Fc arm, constant regions, V domains shown, not shown: another chain or arm of the molecule; a dimerising Fc or GST; small tags and cut ends) VH: QVQLVQSGAEVKKPGASVKVSCKASGYTFTSYWMHWVRQAPGQGLEWMGMIHPNSDNTIYYEKFQGRVTMTVDKSISTAYMELSRLRSDDTAVYYCAIIITPVVPKFDYWGQGTLVTVSS VL: DIVMTQSPDSLAVSLGERATINCKASHDVGTSLAWYQQKPGQSPKLLIYWASTRHTGVPDRFTGSGSGTDFTLTISSLQAEDVAVYFCQQYSSYPLTFGAGTKLEIK
0.18	1.05	0.000113	627000	0.163	0.941	0.0001	616000	XENP32566 (bispecific antibody, part only; not given: anti-CD3 scFv-Fc arm, constant regions, V domains shown, not shown: another chain or arm of the molecule; a dimerising Fc or GST; small tags and cut ends) VH: QVQLVQSGAEVKKPGASVKVSCKASGYTFTSYWMHWVRQAPGQGLEWMGMIHPNSDNTIYYEKFQGRVTMTVDKSISTAYMELSRLRSDDTAVYYCAIIITPVVPKFDYWGQGTLVTVSS VL: DIVMTQSPDSLAVSLGERATINCKASHDVGTSVAWYQQKPGQSPKLLIYWASTRHSGVPDRFTGSGSGTDFTLTISSLQAEDVAVYFCQQYSSYPLTFGAGTKLEIK
0.286	1.11	0.000169	590000	0.255	1	0.000151	592000	XENP32565 (bispecific antibody, part only; not given: anti-CD3 scFv-Fc arm, constant regions, V domains shown, not shown: another chain or arm of the molecule; a dimerising Fc or GST; small tags and cut ends) VH: QVQLVQSGAEVKKPGASVKVSCKASGYTFTSYWMHWVRQAPGQGLEWMGMIHPNSDNTIYYEKFQGRVTMTVDKSISTAYMELSRLRSDDTAVYYCAIIITPVVPKFDYWGQGTLVTVSS VL: DIVMTQSPDSLAVSLGERATINCKASHDVGTSVAWYQQKPGQSPKLLIYWASTRETGVPDRFTGSGSGTDFTLTISSLQAEDVAVYFCQQYSSYPLTFGAGTKLEIK
0.469	1.18	0.000199	425000	0.395	1.07	0.000157	399000	XENP32556 (bispecific antibody, part only; not given: anti-CD3 scFv-Fc arm, constant regions, V domains shown, not shown: another chain or arm of the molecule; a dimerising Fc or GST; small tags and cut ends) VH: QVQLVQSGAEVKKPGASVKVSCKASGYTFTSYWMHWVRQAPGQGLEWMGMIHPNSDNTIYYEKFQGRVTMTVDKSISTAYMELSRLRSDDTAVYYCARIITPVVPKFDYWGQGTLVTVSS VL: DIVMTQSPDSLAVSLGERATINCKASHDVGTSVAWYQQKPGQSPKLLIYWASTRHTGVPDRFTGSGSGTDFTLTISSLQAEDVAVYFCQQYSSYPLTFGAGTKLEIK
0.795	1.17	0.000198	249000	0.7	1.11	0.000166	238000	XENP32558 (bispecific antibody, part only; not given: anti-CD3 scFv-Fc arm, constant regions, V domains shown, not shown: another chain or arm of the molecule; a dimerising Fc or GST; small tags and cut ends) VH: QVQLVQSGAEVKKPGASVKVSCKASGYTFTSYWMHWVRQAPGQGLEWMGMIHPNSDNTIYYEKFQGRVTMTVDKSISTAYMELSRLRSDDTAVYYCAIIITPVVPRFDYWGQGTLVTVSS VL: DIVMTQSPDSLAVSLGERATINCKASHDVGTSVAWYQQKPGQSPKLLIYWASTRHTGVPDRFTGSGSGTDFTLTISSLQAEDVAVYFCQQYSSYPLTFGAGTKLEIK
0.135	0.978	9.35e-05	693000	0.189	0.867	0.000125	660000	XENP32569 (bispecific antibody, part only; not given: anti-CD3 scFv-Fc arm, constant regions, V domains shown, not shown: another chain or arm of the molecule; a dimerising Fc or GST; small tags and cut ends) VH: QVQLVQSGAEVKKPGASVKVSCKASGYTFTSYWMHWVRQAPGQGLEWMGMIHPQSDNTIYYEKFQGRVTMTVDKSISTAYMELSRLRSDDTAVYYCAIIITPVVPKFDYWGQGTLVTVSS VL: DIVMTQSPDSLAVSLGERATINCKASHSVGTSVAWYQQKPGQSPKLLIYWASTRHTGVPDRFTGSGSGTDFTLTISSLQAEDVAVYFCQQYSSYPLTFGAGTKLEIK
0.283	1.11	0.000161	569000	0.223	1.04	0.000128	575000	XENP32559 (bispecific antibody, part only; not given: anti-CD3 scFv-Fc arm, constant regions, V domains shown, not shown: another chain or arm of the molecule; a dimerising Fc or GST; small tags and cut ends) VH: QVQLVQSGAEVKKPGASVKVSCKASGYTFTSYWMHWVRQAPGQGLEWMGMIHPNSDNTIYYEKFQGRVTMTVDKSISTAYMELSRLRSDDTAVYYCAIIITPVVPKFDYWGQGTLVTVSS VL: DIVMTQSPDSLAVSLGERATINCKSSHDVGTSVAWYQQKPGQSPKLLIYWASTRHTGVPDRFTGSGSGTDFTLTISSLQAEDVAVYFCQQYSSYPLTFGAGTKLEIK
0.721	1.15	0.000374	519000	0.62	1.09	0.000321	518000	XENP32557 (bispecific antibody, part only; not given: anti-CD3 scFv-Fc arm, constant regions, V domains shown, not shown: another chain or arm of the molecule; a dimerising Fc or GST; small tags and cut ends) VH: QVQLVQSGAEVKKPGASVKVSCKASGYTFTSYWMHWVRQAPGQGLEWMGMIHPNSDNTIYYEKFQGRVTMTVDKSISTAYMELSRLRSDDTAVYYCAIIISPVVPKFDYWGQGTLVTVSS VL: DIVMTQSPDSLAVSLGERATINCKASHDVGTSVAWYQQKPGQSPKLLIYWASTRHTGVPDRFTGSGSGTDFTLTISSLQAEDVAVYFCQQYSSYPLTFGAGTKLEIK
